Results as given in patent US20090017017A1 (SYMPHOGEN A S, published 2009).

T1: Rhesus D antigen (human, UniProt Q02161 2-417)
T1 construct: whole, on cells; Presented on RhD(+) erythrocytes; also called RhD; RhD antigen
T1 sequence (looked up): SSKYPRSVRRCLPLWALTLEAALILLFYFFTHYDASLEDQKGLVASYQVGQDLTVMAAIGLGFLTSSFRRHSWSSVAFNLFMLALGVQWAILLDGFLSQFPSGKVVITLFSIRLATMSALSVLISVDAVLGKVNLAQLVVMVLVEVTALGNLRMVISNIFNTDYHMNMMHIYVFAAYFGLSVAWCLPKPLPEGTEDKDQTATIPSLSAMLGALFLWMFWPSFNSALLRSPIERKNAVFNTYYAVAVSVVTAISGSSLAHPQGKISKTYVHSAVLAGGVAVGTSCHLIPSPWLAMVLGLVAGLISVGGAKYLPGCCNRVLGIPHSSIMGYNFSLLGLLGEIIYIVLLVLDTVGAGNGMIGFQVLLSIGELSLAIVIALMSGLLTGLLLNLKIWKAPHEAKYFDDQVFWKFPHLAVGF

B1: RhD163.119A02 (Fab, V domains shown)
VH: QVQLQESGPGLVKPSETLSLTCTVSGGSISSYYWSWVRQPPGKGLEWIGYIYYSGSTNYNPSLKSRVTIALDTSKNQFSLKLRSVTAADTAVYFCTRDWRQYGSAIRGSRYYYGMDVWGQGTTVTVSS
VL: EIVLTQSPGTLSLSPGERATLSCRASQNPRRNFLAWYQQKPGQAPRLLIYAASTRATGIPDRFSGSGSGTDFTLTIDRLEPEDSAVYYCQVYGSSPLYTFGQGTKVEMKR
notes: Tested as Fab in E. coli periplasmic extract (VH on human gamma 1 CH1, vector Em351)
B2: RhD189.181E07 (Fab, V domains shown)
VH: QVQLVESGGGVVQPGRSLRLSCAASGFTFSSYGMHWVRQAPGKGLEWVAVIWYDGSNKYYADSVKGRFTISRDNSKNTLYLQMNSLRAEDTAVYYCARDMVTMVRGAYRNYYYYGMDVWGKGTTVTVSS
VL: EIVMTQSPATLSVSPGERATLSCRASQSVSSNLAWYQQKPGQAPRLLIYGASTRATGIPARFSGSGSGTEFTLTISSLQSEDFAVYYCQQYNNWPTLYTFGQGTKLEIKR
notes: as for B1
B3: RhD162.119G12 (Fab, V domains shown)
VH: QVQLVESGGGLVKPGGSLRLSCAASGFGFSAYSMNWVRQAPGKGLEWVSSITSTTTYYADSVKGRFSISRDNAKSTLYLRMNSLRAEDTAVYYCVREIAFRGSTYSRWSYYFDFWGQGTLVTVSS
VL: DIQLTQSPSSVSASVGDSVTITCRASQAVSGWVAWYQQKPGKAPKLLIFGLSNLEDGVPSRFSGSGSATDFTLTITGLQPEDLATYYCLQANRFPLSFGGGTRVEIKR
notes: as for B1
B4: RhD319.187A11 (Fab, V domains shown)
VH: QVQLVESGGGVVQPGRSLRLSCAASGFTFSTYGMHWVRQAPGKGLEWVAVIWYDGSNKNYADSVKGRFTISRDNSKNTLYLQMNSLRAEDTAVYYCARDLQGYRSSWYRMYYYYGMDVWGQGTTVTVSS
VL: QTVVTQEPSLTVSPGGTVTLTCASSTGAVTSGYYPNWFQQKPGQAPRALIYSTSNKHSWTPARFSGSLLGGKAALTLSGVQPEDEAEYYCLLYYGGAQRWVFGGGTILTVLG
notes: as for B1
B5: RhD323.229B07 (Fab, V domains shown)
VH: QVQLVESGGGVVQPGRSLRLSCAASGFTFSSYGMHWVRQAPGKGLEWVAVIWYDGSNKYYADSVKGRFTISRDNSKNTLYLQMNSLRAEDTAVYYCARDWVTRSSNWYRNYYYYGMDVWGQGTTVTVSS
VL: DIQMTQSPSSLSASVGDRVTITCRASQSISSYLNWYQQKPGKAPKLLIYAASTLQSGVPSRFSGSGSGTDFTLTISSLQPEDFATYYCQQYYRTPTWTFGQGTKVEIKR
notes: as for B1
B6: RhD321.187G08 (Fab, V domains shown)
VH: EVQLVESGGGLVKPGGSLRLSCAASGFTFRSYSMNWVRQAPGKGLEWVSSIGSSSIYTYSADSVKGRFTISRDNAKNSLYLQMNSLRAEDTAVYYCARGEPLNYDYIWGRSRLTIHWGQGTLVTVSS
VL: LNFMLTQPHSVSESPGKTVTISCTRSSGSIASNYMQWYQQRPGSSPTTVIYEDNRRPSGVPDRFSGSIDSSSNSASLTISGLKTEDEADYYCQSYDSNNWVFGGGTKLTVLG
notes: as for B1
B7: RhD324.231F07 (Fab, V domains shown)
VH: EVQLVESGGGLVQPGRSLRLSCVASGFTFSSYWMHWVRQVPGKGLVWVSRINVDGKSTSYADSVKGRFTISRDNAKNTLYLQMNSLRAEDTAVYYCARDPRRFLEWARYGMDVWGRGTTVTVSS
VL: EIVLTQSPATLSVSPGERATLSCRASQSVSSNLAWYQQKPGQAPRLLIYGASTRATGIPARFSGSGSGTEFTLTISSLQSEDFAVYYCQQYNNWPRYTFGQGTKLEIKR
notes: as for B1

Molecular target: T1, Rhesus D antigen
Assay: Fab screening on RBC (agglutination, FACS)
Method: After each round of panning single colonies were picked for analysis of their binding properties to red blood cells in agglutination assays. Briefly, single colonies were inoculated into 2×YT/100 μg/mL carbenicillin/1% glucose and shaken overnight at 37° C. The next day, DeepWell plates were inoculated using 900 μl 2×YT/100 μg/mL carbenicillin/0.1% glucose and 10 μl overnight culture. The plates were shaken for two hours at 37° C., before Fab induction was performed with addition of 300 μl 2×YT/100 μg/mL carbenicillin/0.25 mM IPTG per well. The plate was shaken overnight at 30° C. The following day, the bacteria were pelleted by centrifugation (3200×g, 4° C., 10 minutes), and re-suspended in 100 μl of 0.8 M NaCl, 0.2×PBS, 8 mM EDTA, and incubated for 15 minutes on ice in order to perform a periplasmic extraction of the Fab fragments. The plate was transferred to −20° C. and finally the suspension was thawed and centrifugation was performed for 10 minutes at 4° C. and 3200×g. The periplasmic extract was used in ELISA assays for analysis of Fab content and in agglutination assays to evaluate the binding potential of the individual Fab fragments.
The agglutination assay was performed as follows: RhD(−) and RhD(+) RBC were mixed in a 1:1 ratio, and washed 3 times in PBS. After the final wash, the cell mix was re-suspended in 1% BSA in PBS at a density of 10% cells, 50 μl was added to each well of a 96-plate. Periplasmic extracts were added to the wells. As a positive control Rhesogamma P immunoglobulin (Aventis) was used according to the manufacturer's instructions. The plates were incubated for one hour at room temperature with gentle shaking. The cells were washed three times with PBS, before the secondary antibody was added (goat anti-human Fab/FITC conjugate, Sigma F5512) in a 1:100 dilution. The plates were left for agglutination for one hour at room temperature without shaking. Fab fragments positive in the agglutination assay was determined by visual inspection, and recorded by taking a picture. Quantization of the binding activity of the Fab fragments was performed by FACS analysis of the agglutination samples.

Binding result, binds:
B1
B2
B3
B4
B5
B6
B7
